Ends that are not written are not given here. Peptide text beside a SMILES is read from it.
T1: FKBP51 (Homo sapiens, UniProt Q13451)
T1 sequence (Q13451 1-457): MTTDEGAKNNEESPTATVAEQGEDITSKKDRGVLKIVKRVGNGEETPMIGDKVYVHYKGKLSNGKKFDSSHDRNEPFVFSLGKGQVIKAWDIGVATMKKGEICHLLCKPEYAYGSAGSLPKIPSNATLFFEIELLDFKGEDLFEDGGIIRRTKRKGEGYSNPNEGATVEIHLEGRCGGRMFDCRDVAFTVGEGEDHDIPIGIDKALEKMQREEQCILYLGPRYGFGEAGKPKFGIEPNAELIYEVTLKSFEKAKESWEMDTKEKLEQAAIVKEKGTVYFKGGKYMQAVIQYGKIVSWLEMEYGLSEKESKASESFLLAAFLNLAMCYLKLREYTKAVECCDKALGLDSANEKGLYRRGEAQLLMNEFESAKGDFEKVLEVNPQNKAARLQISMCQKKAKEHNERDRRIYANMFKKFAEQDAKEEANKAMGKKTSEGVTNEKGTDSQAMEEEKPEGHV

T2: AIP (Homo sapiens, UniProt O00170)
T2 sequence (O00170 1-330): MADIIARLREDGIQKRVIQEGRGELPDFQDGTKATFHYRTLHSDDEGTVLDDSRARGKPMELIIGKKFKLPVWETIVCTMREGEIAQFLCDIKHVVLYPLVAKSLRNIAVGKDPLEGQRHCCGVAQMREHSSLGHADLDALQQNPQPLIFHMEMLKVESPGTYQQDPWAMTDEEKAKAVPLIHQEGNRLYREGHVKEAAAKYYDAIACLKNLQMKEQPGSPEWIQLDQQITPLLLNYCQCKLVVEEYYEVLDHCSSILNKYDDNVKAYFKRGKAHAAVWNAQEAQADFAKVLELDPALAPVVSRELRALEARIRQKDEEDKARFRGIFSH

T3: AIP (human, UniProt O00170 1-330)
T3 construct: GST-tag-free protein spotted on nitrocellulose; also called nitrocellulose-immobilized AIP; source: E. coli BL21, purified as GST fusion (GSTrap), GST removed with PreScission protease
T3 sequence (looked up): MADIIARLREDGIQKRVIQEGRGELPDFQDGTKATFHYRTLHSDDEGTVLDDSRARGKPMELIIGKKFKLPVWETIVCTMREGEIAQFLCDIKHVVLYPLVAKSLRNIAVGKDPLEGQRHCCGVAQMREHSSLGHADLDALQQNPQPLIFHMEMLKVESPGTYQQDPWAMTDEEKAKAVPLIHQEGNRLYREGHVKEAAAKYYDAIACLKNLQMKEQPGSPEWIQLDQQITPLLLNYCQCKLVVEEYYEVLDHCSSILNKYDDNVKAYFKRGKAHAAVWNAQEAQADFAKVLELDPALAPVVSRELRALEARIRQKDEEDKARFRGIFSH

T4: FKBP51 (human, UniProt Q13451 1-457)
T4 construct: GST-tag-free protein spotted on nitrocellulose; also called immobilized FKBP51; source: E. coli BL21, purified as GST fusion (GSTrap), GST removed with PreScission protease
T4 sequence (looked up): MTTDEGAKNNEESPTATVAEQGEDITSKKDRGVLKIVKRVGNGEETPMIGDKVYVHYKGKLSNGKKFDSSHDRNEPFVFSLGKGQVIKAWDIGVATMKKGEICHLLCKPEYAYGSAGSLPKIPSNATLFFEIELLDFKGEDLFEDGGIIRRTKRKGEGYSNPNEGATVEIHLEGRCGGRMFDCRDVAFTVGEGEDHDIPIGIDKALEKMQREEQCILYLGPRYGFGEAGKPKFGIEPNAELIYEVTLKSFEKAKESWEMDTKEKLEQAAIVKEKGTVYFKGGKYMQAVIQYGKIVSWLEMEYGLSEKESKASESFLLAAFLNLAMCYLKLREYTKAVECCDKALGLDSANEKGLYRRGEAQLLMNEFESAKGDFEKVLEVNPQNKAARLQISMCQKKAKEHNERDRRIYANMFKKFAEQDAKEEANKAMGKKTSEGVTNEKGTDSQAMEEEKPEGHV

T5: Tom70(94–608) (UniProt O94826 94-608)
T5 construct: mitochondrial import receptor Tom70, residues 94-608 as the primers are named; the reverse primer codes for ...KPPTL-stop; source: dot blots used GST-tag-free proteins
T5 sequence (looked up): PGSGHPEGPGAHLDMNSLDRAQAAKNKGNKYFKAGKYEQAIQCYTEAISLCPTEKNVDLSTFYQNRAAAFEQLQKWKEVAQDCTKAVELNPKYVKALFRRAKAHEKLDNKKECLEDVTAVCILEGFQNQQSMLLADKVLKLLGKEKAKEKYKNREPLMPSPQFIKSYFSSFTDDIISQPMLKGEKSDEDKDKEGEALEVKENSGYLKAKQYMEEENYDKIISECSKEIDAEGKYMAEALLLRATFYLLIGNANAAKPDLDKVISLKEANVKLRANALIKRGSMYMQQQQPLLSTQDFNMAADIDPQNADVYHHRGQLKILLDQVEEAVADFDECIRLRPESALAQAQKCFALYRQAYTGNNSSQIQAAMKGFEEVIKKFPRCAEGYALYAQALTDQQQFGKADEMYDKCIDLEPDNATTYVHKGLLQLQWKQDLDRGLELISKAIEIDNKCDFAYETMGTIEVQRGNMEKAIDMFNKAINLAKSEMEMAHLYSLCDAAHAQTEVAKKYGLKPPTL


Legend:
FKBP51 [1] = molecular target: T1, FKBP51; test: Dot-blot competition assay: HRP-conjugated peptide vs unlabeled peptide on immobilized FKBP51
Description: (§1) Full‐length cDNA clones for respective proteins were obtained from IMAGE consortium (SourceBioScience, Nottingham, UK) and PCR amplified with forward and reverse primers (Table 1) containing overhangs with appropriate restriction sites and cloned into pGEX6 vectors (GE Healthcare, Uppsala, Sweden). Inserts were sequence verified, and the plasmids were transformed into BL21 Escherichia coli strain. Glutathione‐S‐transferase (GST) fusion proteins were purified from 1 L overnight culture after 2 h of induction with 1 mM IPTG. Cells were pelleted, resuspended in 1× PBS and sonicated 3 × 20 s on ice. EDTA and protease inhibitor cocktail were added to prevent proteolysis. The suspension was centrifuged for 30 min at 50 000 g to remove cell debris, and supernatant was loaded onto a 1 mL GSTrap™ 4B column (GE Healthcare). After column washing with 30 mL PBS, GST fusion proteins were eluted with 2.5 mL 10 mM glutathione in PBS. Eluate was passed through a PD‐10 column (GE Healthcare) to remove free glutathione. To prepare GST‐tag‐free proteins, we performed overnight cleavage at 4 °C with PreScission protease (GE Healthcare) followed by passage through a GSTrap column to remove free GST protein. Average yield from 1 L starting culture was 1–5 mg of purified proteins. Protein‐containing fractions were collected, checked with SDS/PAGE and kept at −20 °C.
(§2) Peptides were dissolved in HEPES‐KOH buffer pH 7.2 at concentration of 1 mg·mL^−1 and incubated with equimolar amounts of activated horseradish peroxidase (HRP) (Lightning‐link® HRP labeling kit cat. 701‐004, from Innova Biosciences) for 5 min. Reaction was quenched with 0.1 M Tris/HCl, pH 7.5 for 10 min and the products were passed through PD‐10 columns (GE Healthcare). Dot‐blot experiments were performed using GST‐tag‐free proteins applied to the nitrocellulose membrane. After blocking of membrane with 3% BSA in TBS‐T buffer for 1 h and subsequent wash with TBS‐T, HRP‐conjugated peptides (1 × 500 times dilution) were applied and incubated for 1 h. After subsequent washing (3 × 10 min, TBS‐T), membrane was dried and signals were quantified using a digital Fujifilm LAS3000 imager and LAS3000 software. In competition experiments, increasing concentrations of unlabeled peptides were co‐incubated with peptide–HRP conjugates.
(§3) Each peptide was separately coupled to HRP.

AIP [2] = molecular target: T2, AIP; test: Dot-blot competition assay: HRP-conjugated peptide vs unlabeled peptide on nitrocellulose-immobilized AIP
Description: as §1, §2, §3

Tom70 = test: Dot-blot assay of Tom70 with HRP-conjugated Hsp90 and Tom20 peptides in presence of unconjugated peptides; format: binding, human; conditions: 20 μM unconjugated peptide
Description: In subsequent experiments, non‐fluorescent peptides were used. […] Cell impermeable Hsp90 peptide served as a treatment control.
Figure 6 In vitro and in situ analysis of interactions of 10‐amino‐acid peptides corresponding to C termini of Hsp90 and Tom20 with Tom70. (A) Dot‐blot assay of interactions between Tom70 and HRP‐conjugated 10‐amino‐acid peptides corresponding to C termini of Hsp90 and Tom20 in the presence of 20 μM of unconjugated peptides. (B) Fluorescence imaging of HEK293 cells in the presence of 20 μM of fluorescein‐labeled Hsp90, R9–Hsp90, Tom20 and R9–Tom20 peptides. (C) Inhibition of Tom20–Tom70 and Hsp90–Tom70 interactions with R9–Hsp90 and R9–Tom20 in HEK293 cells measured by PLA. n = 3. Graphs were created and SD values were calculated using PRISM, version 7.02. *P‐value < 0.05 compared to control; comparisons are based on one‐way ANOVA. (D) Inhibition of Tom20–Tom70 and Hsp90–Tom70 interactions with R9–Hsp90 and R9–Tom20 in HEK293 cells measured by mammalian two‐hybrid assay. n = 3. Graphs were created and SD values were calculated using PRISM, version 7.02. *P‐value < 0.05 compared to control; comparisons are based on one‐way ANOVA.

AIP [3] = molecular target: T3, AIP; test: far-Western, overlay or dot blot; GST-tag-free FKBP51 or AIP on nitrocellulose, blocked with 3% BSA in TBS-T, probed 1 h with HRP-conjugated peptide, alone or with increasing concentrations of unlabeled peptide; luminescence quantified; IC50 estimated; n = 3; conditions: both partners purified
FKBP51 [4] = molecular target: T4, FKBP51; test: as above; conditions: both partners purified
Tom70(94–608) = molecular target: T5, Tom70(94–608); test: far-Western, overlay or dot blot; Tom70 on nitrocellulose, probed with HRP-conjugated Hsp90 or Tom20 peptide in the presence of 20 μM of unconjugated peptides; conditions: both partners purified

Row | Molecule | IC50 (FKBP51 [1]) | IC50 (AIP [2]) | IC50 (AIP [3]) | IC50 (FKBP51 [4]) | other results
1 | CC(C)C[C@H](NC(=O)[C@H](CC(=O)O)NC(=O)[C@H](Cc1ccc(O)cc1)NC(=O)[C@H](CC(C)C)NC(=O)[C@H](CC(C)C)NC(=O)[C@H](CO)NC(=O)[C@H](CC(N)=O)NC(=O)[C@H](CCC(N)=O)NC(=O)[C@@H](N)Cc1ccccc1)C(=O)N[C@@H](CC(=O)O)C(=O)O [DNAAF2] (H-FQNSLLYDLD-OH) | 25.6 ± 1.54 µM | 8.47 ± 0.43 µM | – | – | –
2 | CC[C@H](C)[C@H](NC(=O)[C@@H](NC(=O)[C@@H]1CCCN1C(=O)CNC(=O)[C@H](CO)NC(=O)CN)[C@@H](C)O)C(=O)N[C@@H](CCC(=O)O)C(=O)N[C@@H](CCC(=O)O)C(=O)N[C@H](C(=O)N[C@@H](CC(=O)O)C(=O)O)C(C)C [Hsp70.1] | 27.6 ± 2.85 µM | 10.6 ± 1 µM | – | – | –
3 | CSCC[C@H](NC(=O)[C@H](CC(N)=O)NC(=O)[C@@H](NC(=O)[C@H](CO)NC(=O)[C@H](CC(N)=O)NC(=O)[C@H](CCCCN)NC(=O)[C@@H](N)CCC(=O)O)C(C)C)C(=O)N[C@@H](CC(=O)O)C(=O)N[C@@H](CC(C)C)C(=O)N[C@@H](CC(=O)O)C(=O)O [Hsp105] (H-EKNSVNMDLD-OH) | 42.8 ± 4.16 µM | 8.64 ± 0.8 µM | – | – | –
4 | CC(C)C[C@H](NC(=O)[C@H](CO)NC(=O)[C@H](CCC(N)=O)NC(=O)[C@@H]1CCCN1C(=O)[C@H](CCC(=O)O)NC(=O)[C@H](C)N)C(=O)N[C@@H](CC(=O)O)C(=O)NCC(=O)N[C@H](C(=O)N[C@@H](CC(=O)O)C(=O)O)C(C)C [NADSYN1] (H-AEPQSLDGVD-OH) | 28.2 ± 1.96 µM | 9.74 ± 0.72 µM | – | – | –
5 | CC(C)C[C@H](NC(=O)[C@H](CO)NC(=O)[C@H](CCC(N)=O)NC(=O)[C@H](C)N)C(=O)N[C@@H](C)C(=O)N[C@@H](CCC(=O)O)C(=O)N[C@@H](CC(=O)O)C(=O)N[C@@H](CC(=O)O)C(=O)N[C@H](C(=O)N[C@@H](CCC(=O)O)C(=O)O)C(C)C [Tom20] (H-AQSLAEDDVE-OH) | 132 ± 12.6 µM | 35.3 ± 3.2 µM | – | – | competition with HRP-conjugated Hsp90 peptide for Tom70 binding (Tom70): unable to disrupt
6 | FQNSLLYDLD (the 10 C-terminal residues of DNAAF2; source: synthetic peptide (Peptide 2.0, Inc.), > 95% purity) [DNAAF2 peptide] | – | – | 8 µM | 25 µM | –
7 | EDASRMEEVD (also: HRP-conjugated, the 10 C-terminal residues of Hsp90β; also called HRP–Hsp90; Hsp90 peptide conjugated to HRP) [HRP-conjugated Hsp90β peptide] | – | – | – | – | binding result (Tom70(94–608)): binds
8 | AQSLAEDDVE (the 10 C-terminal residues of Tom20; also called Tom20 label-free peptide; unlabeled Tom20 peptide; source: synthetic peptide (Peptide 2.0, Inc.), > 95% purity) [Tom20 peptide] | – | – | 62 µM | 183 µM | –
9 | AEPQSLDGVD (the 10 C-terminal residues of NADSYN1; source: synthetic peptide (Peptide 2.0, Inc.), > 95% purity) [NADSYN1 peptide] | – | – | 18 µM | 28 µM | –
10 | EKNSVNMDLD (the 10 C-terminal residues of Hsp105; source: synthetic peptide (Peptide 2.0, Inc.), > 95% purity) [Hsp105 peptide] | – | – | 6 µM | 40 µM | –
11 | EDASRMEEVD (the 10 C-terminal residues of Hsp90β; also called Hsp90 peptide; Hsp90β-derived peptide; source: synthetic peptide (Peptide 2.0, Inc.), > 95% purity) [Hsp90β peptide] | – | – | 18 µM | 16 µM | binding result (Tom70(94–608)): binds
12 | PTYSNMEEVD (source: synthetic peptide (Peptide 2.0, Inc.), > 95% purity) [Usp19 peptide] | – | – | 9 µM | 19 µM | –
13 | AQSLAEDDVE (also: HRP-conjugated, the 10 C-terminal residues of Tom20) [HRP-conjugated Tom20 peptide] | – | – | – | – | binding result (Tom70(94–608)): binds

Second part, led by results:

Row | IC50 (FKBP51 [1]) | IC50 (AIP [2]) | IC50 (AIP [3]) | IC50 (FKBP51 [4]) | Molecule | other results
14 | 19.7 ± 2.55 µM | 18.8 ± 2.78 µM | – | – | CSCC[C@H](NC(=O)[C@H](CC(N)=O)NC(=O)[C@H](CO)NC(=O)[C@H](Cc1ccc(O)cc1)NC(=O)[C@@H](NC(=O)[C@@H]1CCCN1)[C@@H](C)O)C(=O)N[C@@H](CCC(=O)O)C(=O)N[C@@H](CCC(=O)O)C(=O)N[C@H](C(=O)N[C@@H](CC(=O)O)C(=O)O)C(C)C [Usp19] (H-PTYSNMEEVD-OH) | –
15 | 189 ± 12.9 µM | 55 ± 4.51 µM | – | – | CSCC[C@H](NC(=O)[C@H](CCCCN)NC(=O)[C@H](CCC(=O)O)NC(=O)[C@H](CC(=O)O)NC(=O)[C@H](CC(=O)O)NC(=O)[C@@H](N)CO)C(=O)N1CCC[C@H]1C(=O)N[C@@H](CC(=O)O)C(=O)N[C@@H](CC(C)C)C(=O)N[C@@H](CCC(=O)O)C(=O)O [p23] (H-SDDEKMPDLE-OH) | –
16 | – | – | 47 µM | 291 µM | SDDEKMPDLE (the 10 C-terminal residues of p23 / PTGES3; also called p23 C-terminal peptide; source: synthetic peptide (Peptide 2.0, Inc.), > 95% purity) [p23 peptide] | –

Source: paper PMC6212638, “In silico identification and biochemical characterization of the human dicarboxylate clamp TPR protein interaction network” (FEBS Open Bio, 2018)
